# Measurements taken from patent US20220177575A1 (MAGENTA THERAPEUTICS, published 2022).
# B1: anti-CD117 antibody 85 (Ab85) (antibody, V domains shown)
# VH: EVQLVQSGAEVKKPGESLKISCKGSGYSFTNYWIGWVRQMPGKGLEWMAIINPRDSDTRYRPSFQGQVTISADKSISTAYLQWSSLKASDTAMYYCARHGRGYEGYEGAFDIWGQGTLVTVSS
# VL: DIQMTQSPSSLSASVGDRVTITCRSSQGIRSDLGWYQQKPGKAPKLLIYDASNLETGVPSRFSGSGSGTDFTLTISSLQPEDFATYYCQQANGFPLTFGGGTKVEIK
# notes: Human antibody derived from CK6; also called Antibody HC-85/LC-85
# Biological target: T1, Human CD117 antigen (human, UniProt P10721 26-520)
# T1 construct: also called c-kit; Stem Cell Factor Receptor
# T1 sequence (P10721 other isoform, or with tags, fused parts or gaps limits assumed): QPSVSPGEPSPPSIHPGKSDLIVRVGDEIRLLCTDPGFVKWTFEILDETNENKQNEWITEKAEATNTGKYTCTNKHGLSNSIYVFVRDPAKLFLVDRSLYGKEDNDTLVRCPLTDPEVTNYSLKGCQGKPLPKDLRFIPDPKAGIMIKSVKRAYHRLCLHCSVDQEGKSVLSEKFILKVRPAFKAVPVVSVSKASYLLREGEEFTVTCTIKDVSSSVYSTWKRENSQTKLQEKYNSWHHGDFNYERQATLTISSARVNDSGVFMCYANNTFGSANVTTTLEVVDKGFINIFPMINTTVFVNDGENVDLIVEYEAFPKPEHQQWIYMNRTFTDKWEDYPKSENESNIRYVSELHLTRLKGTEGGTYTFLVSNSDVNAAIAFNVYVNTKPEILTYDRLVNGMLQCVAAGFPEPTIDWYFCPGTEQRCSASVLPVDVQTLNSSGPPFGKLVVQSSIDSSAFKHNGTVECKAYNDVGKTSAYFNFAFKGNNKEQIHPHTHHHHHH
# Assay: chemical cross-linking, High-Mass MALDI MS and nLC-Orbitrap MS of the complex
binder,measurement,value
B1,binding result,binds
